Article PMC10656745 (ACS synthetic biology, 2022)

Molecular target: the molecule itself
Assay: native gel or EMSA

B1: wild-type GstA (glutathione S-transferase, PP_1162) of Pseudomonas putida KT2440 (enzyme, UniProt Q88NP5 1-209, looked up)
chain: MSNPIKLYNFPKSGHAHRIELMLSLLNLPTELVFVDLAKGAHKQPDFLALNPFGQVPVIDDNGTVIADSNAILVYLAKKYDNGTWLPEEPAAAARVQRWLSVAAGPLAFGPAAARLVTVFGASFNTDEVISRAHTLLKVIDAELANTPFLTGSTPTIADIANYSYIAHAPEGNVSLEPYANVRNWLARIEALPRFVPMPRTVIGLQTHA
With B1 the “stoichiometry N” value was 2.
